Source: publication PMC10397247

B1: 4H2760-bH (peptide)
chain: DKIQELKKENEELKREIWELEKKNQELKR
B2: P1-AA-1HAA-K (peptide)
chain: DEIAALEAEKAALEAENAALEAEIAALEG
B3: O4-bP (peptide)
chain: DKIKQLKQEIQRLEQKNQRLKWKNQKLKQ
B4: P1-AA-1HAA-S (peptide)
chain: DEIAALEAESAALEAENAALEAEIAALEG
B5: 4H264-bH (peptide)
chain: DEIQELEKKIEELEREIWELEKKNQELKR

What was measured:
4H2760-bH = biological target: T1, 4H2760-bH; assay: two-hybrid library CCNG1;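 further: natural log of median RNA to DNA barcode read ratio; higher means stronger binding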
T1 chain: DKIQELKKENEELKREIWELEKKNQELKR

4H2859-bH = biological target: T2, 4H2859-bH; assay: two-hybrid library CCNG1;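 further: natural log of median RNA to DNA barcode read ratio; higher means stronger binding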
T2 chain: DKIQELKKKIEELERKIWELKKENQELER

4H2931-bH = biological target: T3, 4H2931-bH; assay: two-hybrid library CCNG1;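 further: natural log of median RNA to DNA barcode read ratio; higher means stronger binding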
T3 chain: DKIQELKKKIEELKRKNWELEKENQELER

4H3041-bH = biological target: T4, 4H3041-bH; assay: two-hybrid library CCNG1;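 further: natural log of median RNA to DNA barcode read ratio; higher means stronger binding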
T4 chain: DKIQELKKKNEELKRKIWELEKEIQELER

4H3297-bH = biological target: T5, 4H3297-bH; assay: two-hybrid library CCNG1
T5 chain: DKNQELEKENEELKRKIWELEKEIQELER

4H3364-bH = biological target: T6, 4H3364-bH; assay: two-hybrid library CCNG1
T6 chain: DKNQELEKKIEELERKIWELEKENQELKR

4H3381-bH = biological target: T7, 4H3381-bH; assay: two-hybrid library CCNG1
T7 chain: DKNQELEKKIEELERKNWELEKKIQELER

4H349-bH = biological target: T8, 4H349-bH; assay: two-hybrid library CCNG1
T8 chain: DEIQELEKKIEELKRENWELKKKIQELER

4H40-bH = biological target: T9, 4H40-bH; assay: two-hybrid library CCNG1
T9 chain: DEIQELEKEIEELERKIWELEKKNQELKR

4H4073-bA = biological target: T10, 4H4073-bA; assay: two-hybrid library CCNG1
T10 chain: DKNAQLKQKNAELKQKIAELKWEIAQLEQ

4H56-bH = biological target: T11, 4H56-bH; assay: two-hybrid library CCNG1
T11 chain: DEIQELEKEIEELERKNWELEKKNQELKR

4H730-bH = biological target: T12, 4H730-bH; assay: two-hybrid library CCNG1
T12 chain: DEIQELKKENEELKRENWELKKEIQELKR

4H796-bH = biological target: T13, 4H796-bH; assay: two-hybrid library CCNG1
T13 chain: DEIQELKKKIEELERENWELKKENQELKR

4H932-bH = biological target: T14, 4H932-bH; assay: two-hybrid library CCNG1
T14 chain: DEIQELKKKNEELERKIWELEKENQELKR

4H949-bH = biological target: T15, 4H949-bH; assay: two-hybrid library CCNG1
T15 chain: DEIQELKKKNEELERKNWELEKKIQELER

O16-bN = biological target: T16, O16-bN; assay: two-hybrid library CCNG1
T16 chain: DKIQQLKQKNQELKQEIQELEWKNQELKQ

P2-AA-1HAA-D = biological target: T17, P2-AA-1HAA-D; assay: two-hybrid library CCmax; conditions: mean of both orientations
T17 chain: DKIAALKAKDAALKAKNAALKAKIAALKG

P2-AA-1HAA-E = biological target: T18, P2-AA-1HAA-E; assay: two-hybrid library CCmax; conditions: mean of both orientations
T18 chain: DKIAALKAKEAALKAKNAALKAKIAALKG

P2-AA-1HAA-I = biological target: T19, P2-AA-1HAA-I; assay: two-hybrid library CCmax; conditions: mean of both orientations
T19 chain: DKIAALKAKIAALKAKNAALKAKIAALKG

P2-AA-1HAA-R = biological target: T20, P2-AA-1HAA-R; assay: two-hybrid library CCmax; conditions: mean of both orientations
T20 chain: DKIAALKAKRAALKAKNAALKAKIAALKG

P2-AA-1HAA-S = biological target: T21, P2-AA-1HAA-S; assay: two-hybrid library CCmax; conditions: mean of both orientations
T21 chain: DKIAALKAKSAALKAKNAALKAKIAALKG

P2-AA-1HAA-T = biological target: T22, P2-AA-1HAA-T; assay: two-hybrid library CCmax; conditions: mean of both orientations
T22 chain: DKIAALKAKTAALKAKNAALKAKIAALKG

P2-AA-1HAA-V = biological target: T23, P2-AA-1HAA-V; assay: two-hybrid library CCmax; conditions: mean of both orientations
T23 chain: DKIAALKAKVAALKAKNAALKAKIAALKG

O4-bP = biological target: T24, O4-bP; assay: two-hybrid library CCNG1
T24 chain: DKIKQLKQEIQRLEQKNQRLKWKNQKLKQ

O5-bP = biological target: T25, O5-bP; assay: two-hybrid library CCNG1
T25 chain: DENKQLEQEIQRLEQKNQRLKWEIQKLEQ

O6-bP = biological target: T26, O6-bP; assay: two-hybrid library CCNG1
T26 chain: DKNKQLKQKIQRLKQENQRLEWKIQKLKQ

O7-bP = biological target: T27, O7-bP; assay: two-hybrid library CCNG1
T27 chain: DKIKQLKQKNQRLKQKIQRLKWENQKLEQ

O8-bP = biological target: T28, O8-bP; assay: two-hybrid library CCNG1
T28 chain: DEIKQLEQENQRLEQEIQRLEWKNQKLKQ

O9-bP = biological target: T29, O9-bP; assay: two-hybrid library CCNG1
T29 chain: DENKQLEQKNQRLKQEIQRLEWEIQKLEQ

P2-AA = biological target: T30, P2-AA; assay: two-hybrid library CCmax; conditions: mean of both orientations
T30 chain: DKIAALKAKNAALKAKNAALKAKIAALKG

4H264-bH = biological target: T31, 4H264-bH; assay: two-hybrid library CCNG1
T31 chain: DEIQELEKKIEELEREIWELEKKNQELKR

4H3010-bA = biological target: T32, 4H3010-bA; assay: two-hybrid library CCNG1
T32 chain: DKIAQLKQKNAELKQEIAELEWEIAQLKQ

O8-bA = biological target: T33, O8-bA; assay: two-hybrid library CCNG1
T33 chain: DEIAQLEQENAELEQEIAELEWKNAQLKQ

Binder | interaction score (4H2760-bH) | interaction score (4H2859-bH) | interaction score (4H2931-bH) | interaction score (4H3041-bH) | interaction score (4H3297-bH) | interaction score (4H3364-bH) | interaction score (4H3381-bH) | interaction score (4H349-bH) | interaction score (4H56-bH) | interaction score (4H730-bH) | interaction score (4H796-bH) | interaction score (4H932-bH) | interaction score (4H949-bH) | interaction score (P2-AA-1HAA-D) | interaction score (P2-AA-1HAA-E) | interaction score (P2-AA-1HAA-I) | interaction score (P2-AA-1HAA-R) | interaction score (P2-AA-1HAA-S) | interaction score (P2-AA-1HAA-T) | interaction score (P2-AA-1HAA-V) | other results
B1 | 1.46 | 0.64 | -0.365 | 0.73 | 1.12 | 0.427 | 0.571 | 0.171 | -1.85 | -0.92 | 0.41 | -1.86 | -0.189 | – | – | – | – | – | – | – | interaction score (4H40-bH): -1.45; interaction score (4H4073-bA): -0.277; interaction score (O16-bN): 0.693
B2 | – | – | – | – | – | – | – | – | – | – | – | – | – | 0.24 | 0.472 | 1.82 | 1.56 | 1.97 | 2.06 | 2.1 | –
B3 | – | – | – | – | – | – | – | – | – | – | – | – | – | – | – | – | – | – | – | – | interaction score (O4-bP): -0.959; interaction score (O5-bP): -0.998; interaction score (O6-bP): -0.676; interaction score (O7-bP): -0.866; interaction score (O8-bP): -2.5; interaction score (O9-bP): -0.425
B4 | – | – | – | – | – | – | – | – | – | – | – | – | – | 1.28 | 1.97 | 2.17 | 2.17 | 1.18 | 1.87 | 2 | interaction score (P2-AA): 2.06
B5 | 0.562 | 1.8 | 0.678 | 1.23 | 1.11 | 0.996 | 1.06 | 0.113 | -0.538 | 0.131 | -0.303 | -0.203 | -0.764 | – | – | – | – | – | – | – | interaction score (4H264-bH): 0.678; interaction score (4H3010-bA): 1.67; interaction score (O8-bA): 0.091
